Experimental data reported in publication PMC4499159.

Assays:
XRCC1 (human) = XRCC1 (human) (UniProt P18887); experiment: fluorescence titration; conditions: 50 mM HEPES pH 8.0, 100 mM NaCl, 4 mM DTT (+10 mM EDTA for APE1), labelled protein from 20 nM, temperature not stated
[1] = biological target: DNA polymerase beta (Polβ) (rat) (UniProt P06766); experiment: fluorescence titration; conditions: 50 mM HEPES pH 8.0, 100 mM NaCl, 4 mM DTT (+10 mM EDTA for APE1), labelled protein from 20 nM, temperature not stated
[2] = biological target: apurinic/apyrimidinic endonuclease 1 (human) (UniProt P27695); experiment: FRET or BRET; FAM-labelled protein (donor, 40 nM, fixed) titrated with the TMR-labelled partner (acceptor); corrected for acceptor signal; E = 1 - Fda/Fd; EC50 is that of the TMR-labelled partner; 50 mM HEPES pH 8.0, 100 mM NaCl, 4 mM DTT; apparent
DNA polymerase β (rat) = DNA polymerase β (rat) (UniProt P06766); experiment: as above
[3] = biological target: apurinic/apyrimidinic endonuclease 1 (human) (UniProt P27695); experiment: other fluorescence titration; FAM-labelled protein at 40 nM (fixed) titrated with the unlabelled partner; 50 mM HEPES pH 8.0, 100 mM NaCl, 4 mM DTT; excitation 485 nm, emission 520 nm; EC50 from a four-parameter logistic fit, an apparent equilibrium dissociation constant
[4] = biological target: apurinic/apyrimidinic endonuclease 1 (human) (UniProt P27695); experiment: dynamic light scattering; individual proteins or equimolar mixtures at 6 μM; 25 mM HEPES pH 7.5, 100 mM NaCl, 1 mM DTT; 24°C; hydrodynamic radius compared with predicted values
[5] = biological target: AP endonuclease 1 (APE1) (human) (UniProt P27695); experiment: fluorescence titration; conditions: 50 mM HEPES pH 8.0, 100 mM NaCl, 4 mM DTT (+10 mM EDTA for APE1); labelled protein from 20 nM; temperature not stated
[6] = biological target: X-ray repair cross-complementing protein 1 (human) (UniProt P18887); experiment: dynamic light scattering; individual proteins or equimolar mixtures at 6 μM; 25 mM HEPES pH 7.5, 100 mM NaCl, 1 mM DTT; 24°C; hydrodynamic radius compared with predicted values
[7] = biological target: X-ray repair cross-complementing protein 1 (human) (UniProt P18887); experiment: other fluorescence titration; TAF-labelled XRCC1 at 40 nM (fixed) titrated with the unlabelled partner; 50 mM HEPES pH 8.0, 100 mM NaCl, 4 mM DTT; EC50 from a four-parameter logistic fit, apparent
[8] = biological target: FAM-labeled human apurinic/apyrimidinic endonuclease 1 (human) (UniProt P27695); experiment: other fluorescence titration; 40 nM FAM-APE1 premixed with 160 nM incised AP-DNA, titrated with unlabeled partner; 50 mM HEPES pH 8.0, 100 mM NaCl, 4 mM DTT, 10 mM EDTA; EC50 from four-parameter fit, apparent
[9] = biological target: FAM-labeled human apurinic/apyrimidinic endonuclease 1 (human) (UniProt P27695); experiment: other fluorescence titration; 40 nM FAM-APE1 premixed with 160 nM gap-DNA, titrated with unlabeled partner; 50 mM HEPES pH 8.0, 100 mM NaCl, 4 mM DTT, 10 mM EDTA; EC50 from four-parameter fit, apparent
[10] = biological target: FAM-labeled human apurinic/apyrimidinic endonuclease 1 (human) (UniProt P27695); experiment: other fluorescence titration; 40 nM FAM-APE1 premixed with 160 nM AP-DNA, titrated with unlabeled partner; 50 mM HEPES pH 8.0, 100 mM NaCl, 4 mM DTT, 10 mM EDTA; EC50 from four-parameter fit, apparent

pUC19 gave a K half (XRCC1 (human); TAF-XRCC1, n 0.63) of 1700 nM and a K half [1] of 2400 nM.

Work on “apurinic/apyrimidinic endonuclease 1 (from UniProt P27695 1-318) (enzyme)” yielded an EC50 [2] of 130 nM, an EC50 (DNA polymerase β (rat)) of 90 nM and an FRET efficiency E (DNA polymerase β (rat)) of 0.37. The EC50 [3] was 120 nM, the stoichiometry N [3] was 2 and the stoichiometry N [4] was 2.

“GGCGATTAAGTTGGGTAACGTCAGGGTCTTCC (double strand) [ds-DNA]” showed a K half [5] of 100 nM, a K half (XRCC1 (human)) of 110 nM and a K half [1] of 160 nM.

Work on “X-ray repair cross-complementing protein 1 (from UniProt P18887 1-633) (natural protein)” yielded an EC50 [3] of 76 nM, a stoichiometry N [6] of 2 and an EC50 [7] of 73 nM.

For “GGCGATTAAGTTGGGNAACGTCAGGGTCTTCC / GGAAGACCCTGACGTTACCCAACTTAATCGCC [AP-DNA]”, the K half ([1]; N16 of strand 1 = THF abasic site) was 20 nM.

For “human X-ray repair cross-complementing protein 1 (from UniProt P18887 1-633) (natural protein)”, the EC50 [8] was 83 nM, the EC50 [9] was 51 nM and the EC50 [10] was 78 nM.

nick-pUC19 gave a K half (XRCC1 (human); TAF-XRCC1, n 0.60, nicked by N.Bst9I) of 10 nM and a K half ([1]; nicked by N.Bst9I) of 30 nM.
